These are literature values, as cited in paper PMC9406205.

Data set [1] addresses PRK (Chlamydomonas reinhardtii) (UniProt P19824). In words: surface plasmon resonance.
Data set [2] addresses GAPDH (Chlamydomonas reinhardtii) (UniProt P50362). In words: surface plasmon resonance.

Chain of UniProt P19824 (P19824 32-375): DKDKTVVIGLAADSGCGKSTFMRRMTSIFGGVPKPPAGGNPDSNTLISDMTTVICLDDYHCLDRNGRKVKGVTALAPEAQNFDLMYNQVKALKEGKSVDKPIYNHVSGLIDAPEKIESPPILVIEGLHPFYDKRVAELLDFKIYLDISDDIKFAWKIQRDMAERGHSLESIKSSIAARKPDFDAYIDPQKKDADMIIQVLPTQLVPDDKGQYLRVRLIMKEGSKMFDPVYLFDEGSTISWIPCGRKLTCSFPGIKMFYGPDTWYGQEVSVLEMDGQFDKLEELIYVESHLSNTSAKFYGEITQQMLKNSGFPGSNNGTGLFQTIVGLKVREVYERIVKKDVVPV

With “GAPDH-CP12 subcomplex (from UniProt P50362)”, the Kd in data set [1] is 60 nM.
Turning to CP12 (from UniProt A6Q0K5), in data set [2], the Kd is 0.44 nM.
